Test results taken from patent US20260078197A1.

Biological target: Macaca fascicularis (crab-eating macaque) TFR1 expressed on CHO-S cells (Macaca fascicularis (crab-eating macaque))
Experiment: flow cytometry on CHO-S-fasTFR1 cells; anti-hIgG-Fc Alexa Fluor 647 secondary

Macaca fascicularis (crab-eating macaque) TFR1 expressed on CHO-S cells (Macaca fascicularis (crab-eating macaque)), sequence (chain, as listed by the source limits assumed): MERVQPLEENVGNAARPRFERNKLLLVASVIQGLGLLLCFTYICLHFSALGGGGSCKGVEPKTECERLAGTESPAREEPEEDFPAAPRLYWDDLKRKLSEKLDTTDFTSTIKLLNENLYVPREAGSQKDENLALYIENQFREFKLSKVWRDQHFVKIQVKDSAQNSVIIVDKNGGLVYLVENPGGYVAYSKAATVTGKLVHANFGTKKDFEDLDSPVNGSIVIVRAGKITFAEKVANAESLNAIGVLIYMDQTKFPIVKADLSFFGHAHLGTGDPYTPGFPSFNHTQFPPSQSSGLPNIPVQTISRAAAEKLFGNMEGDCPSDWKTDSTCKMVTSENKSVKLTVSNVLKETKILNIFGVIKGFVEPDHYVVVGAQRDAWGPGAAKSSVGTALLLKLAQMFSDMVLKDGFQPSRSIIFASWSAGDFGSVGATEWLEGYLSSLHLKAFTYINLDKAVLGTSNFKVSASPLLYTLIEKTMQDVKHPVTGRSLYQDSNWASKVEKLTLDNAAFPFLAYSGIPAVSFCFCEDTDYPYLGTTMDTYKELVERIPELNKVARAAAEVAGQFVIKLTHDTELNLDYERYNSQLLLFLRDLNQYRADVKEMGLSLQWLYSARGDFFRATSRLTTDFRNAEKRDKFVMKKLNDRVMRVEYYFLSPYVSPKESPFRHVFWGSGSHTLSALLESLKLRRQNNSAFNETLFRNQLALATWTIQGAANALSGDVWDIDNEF

Percentage of Positive Cells: 0.35%
B1: 24C9 (antibody, human IgG1, V domains shown)
VH: EVQLVQSGGGVVQPGRSLRLSCAASGFTLSSYGMYWVRQAPGKGREWVAFIRFDESKKYYADSVKGRFTISRDNSKNTLYLQMNSLRAEDTAVYYCARDGEGGYCTNGVCHGLDVWGQGTTVTVSS
